Read-outs that look alike come from different tables or passages of the source.
T1: Biotin-labeled human BCMA (human, UniProt Q02223 1-54, limits assumed, Biotin-labeled (site not stated))
T1 sequence (looked up): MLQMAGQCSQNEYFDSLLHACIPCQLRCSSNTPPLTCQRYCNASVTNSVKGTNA

T2: human BCMA on BCMA-HEK293 cells (human, UniProt Q02223 1-184)
T2 construct: whole, on cells; also called human BCMA-HEK293 cells; HEK293 cells overexpressing human BCMA
T2 sequence (looked up): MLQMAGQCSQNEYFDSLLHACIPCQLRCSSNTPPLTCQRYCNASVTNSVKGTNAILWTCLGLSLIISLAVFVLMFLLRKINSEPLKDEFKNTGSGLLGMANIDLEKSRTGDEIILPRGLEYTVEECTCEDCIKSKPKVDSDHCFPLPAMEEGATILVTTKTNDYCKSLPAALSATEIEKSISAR

T3: human-BCMA-Fc (human, UniProt Q02223 1-54)
T3 construct: Bought from ACRO Biosystems, catalog BC7-H5254; also called ACRO Biosystems BC7-H5254; not shown: Fc tag
T3 sequence (looked up): T1 sequence (looked up)

T4: human-BCMA-His (human, UniProt Q02223 1-54)
T4 construct: Bought from ACRO Biosystems, catalog BCA-H522y; also called ACRO Biosystems BCA-H522y; not shown: His tag
T4 sequence (looked up): T1 sequence (looked up)

T5: human BCMA on H929 cells (human, UniProt Q02223 1-184)
T5 construct: whole, on cells; also called human myeloma cell line H929 cells expressing BCMA
T5 sequence (looked up): T2 sequence (looked up)

T6: human-APRIL-Fc (human, UniProt O75888 115-250, limits assumed)
T6 construct: Bought from ACRO Biosystems, APL-H5267; also called human APRIL protein; ACRO Biosystems APL-H5267; not shown: Fc tag
T6 sequence (looked up): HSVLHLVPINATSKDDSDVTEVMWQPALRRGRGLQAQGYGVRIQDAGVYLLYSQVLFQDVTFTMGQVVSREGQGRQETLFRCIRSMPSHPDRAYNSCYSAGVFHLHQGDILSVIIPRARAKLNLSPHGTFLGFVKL

B1: GSK2857916 (positive control antibody, not coupled to the toxin molecule) (antibody, V domains shown)
VH: QVQLVQSGAEVKKPGSSVKVSCKASGGTFSNYWMHWVRQAPGQGLEWMGATYRGHSDTYYNQKFKGRVTITADKSTSTAYMELSSLRSEDTAVYYCARGAIYDGYDVLDNWGQGTLVTVSS
VL: DIQMTQSPSSLSASVGDRVTITCSASQDISNYLNWYQQKPGKAPKLLIYYTSNLHSGVPSRFSGSGSGTDFTLTISSLQPEDFATYYCQQYRKLPWTFGQGTKLEIK
notes: also called Belantamab mafodotin antibody; positive antibody
B2: human BCMA (recombinant antigen, tag not stated for the assay) (receptor, UniProt Q02223 1-54, looked up)
chain: T1 sequence (looked up)
notes: The ELISA and screening sections say only 'human BCMA'; also called human BCMA antigen

Key:
[1] = target: T1, Biotin-labeled human BCMA; test: blocking ELISA (OD450): human BAFF coated, antibody premixed with Biotin-labeled human BCMA; blocked ligand BAFF; IC50 table in the figure
[2] = target: B2; test: ELISA (OD450) on coated human BCMA; EC50 table in the figure
[3] = target: B2; test: as above; remark: listed apart in the source
[4] = target: T7, monkey BCMA (recombinant antigen, tag not stated for the assay) (monkey, UniProt A0A2K5UD97 1-53); test: ELISA (OD450) on coated monkey BCMA; EC50 table in the figure
T7 construct: The ELISA, screening and BLI sections say only 'monkey BCMA' or 'monkey BCMA protein'; also called monkey BCMA protein; monkey BCMA antigen; not shown: The carrier tag (human IgG1 Fc or His tag) of the bought ACRO antigen

[5] = target: T2, human BCMA on BCMA-HEK293 cells; test: flow cytometry (MFI) on HEK293 cells expressing human BCMA; EC50 table in the figure
human-BCMA-Fc [6] = target: T3, human-BCMA-Fc; test: BLI (Octet RED96), antibody on FAB2G sensor, human BCMA-Fc at 200, 50, 12.5 nM
human-BCMA-Fc [7] = target: T3, human-BCMA-Fc; test: ELISA (OD450), GSK2857916 titrated up to 10 µg/mL on Human BCMA-Fc; EC50 table in the figure
[8] = target: T1, Biotin-labeled human BCMA; test: blocking ELISA (OD450): human APRIL coated, antibody premixed with Biotin-labeled human BCMA; blocked ligand APRIL; IC50 table in the figure
[9] = target: T7, monkey BCMA (recombinant antigen, tag …); test: BLI (Octet RED96), antibody on FAB2G sensor, monkey BCMA protein at 200, 50, 12.5 nM
[10] = target: T7, monkey BCMA (recombinant antigen, tag …); test: ELISA (OD450) on coated monkey BCMA; EC50 table in the figure; remark: listed apart in the source
[11] = target: T2, human BCMA on BCMA-HEK293 cells; test: flow cytometry (MFI) on HEK293 cells expressing human BCMA; EC50 table in the figure; remark: listed apart in the source
[12] = target: T7, monkey BCMA (recombinant antigen, tag …); test: ELISA (OD450) on coated monkey BCMA; EC50 table in the figure; remark: listed apart in the source
[13] = target: B2; test: ELISA (OD450) on coated human BCMA; EC50 table in the figure; remark: listed apart in the source
[14] = target: T1, Biotin-labeled human BCMA; test: blocking ELISA (OD450): human BAFF coated, antibody premixed with Biotin-labeled human BCMA; blocked ligand BAFF; IC50 table in the figure; remark: listed apart in the source
human-BCMA-His = target: T4, human-BCMA-His; test: ELISA (OD450), GSK2857916 titrated up to 10 µg/mL on Human BCMA-His; EC50 table in the figure
[15] = target: T1, Biotin-labeled human BCMA; test: blocking ELISA (OD450): human APRIL coated, antibody premixed with Biotin-labeled human BCMA; blocked ligand APRIL; IC50 table in the figure; remark: listed apart in the source
human BCMA on H929 cells = target: T5, human BCMA on H929 cells; test: flow cytometry (MFI) on myeloma cell line H929 expressing BCMA; EC50 table in the figure; curve still rising at about 60 µg/mL
[16] = target: T1, Biotin-labeled human BCMA; test: blocking ELISA (OD450): human BAFF coated, antibody premixed with Biotin-labeled human BCMA; blocked ligand BAFF; IC50 table in the figure; remark: listed apart in the source
[17] = target: T1, Biotin-labeled human BCMA; test: blocking ELISA (OD450): human APRIL coated, antibody premixed with Biotin-labeled human BCMA; blocked ligand APRIL; IC50 table in the figure; remark: listed apart in the source
[18] = target: T8, monkey BCMA on BCMA-CHO cells (cynomolgus monkey, UniProt A0A2K5UD97 1-183); test: flow cytometry (MFI) on CHO cells expressing monkey BCMA; EC50 table in the figure
T8 construct: whole, on cells; also called monkey BCMA-CHO cells; CHO cells overexpressing monkey BCMA

[19] = target: T8, monkey BCMA on BCMA-CHO cells; test: flow cytometry (MFI) on CHO cells expressing monkey BCMA; EC50 table in the figure; curve still rising at 10 µg/mL
human-APRIL-Fc [20] = target: T6, human-APRIL-Fc; test: ELISA (OD450), plate coated with APRIL 1 µg/ml, human BCMA titrated up to 10 µg/mL; EC50 table in the figure
human-APRIL-Fc [21] = target: T6, human-APRIL-Fc; test: ELISA (OD450), plate coated with APRIL 2 µg/ml, human BCMA titrated up to 10 µg/mL; EC50 table in the figure
human-APRIL-Fc [22] = target: T6, human-APRIL-Fc; test: ELISA (OD450), plate coated with APRIL 8 µg/ml, human BCMA titrated up to 10 µg/mL; EC50 table in the figure
human-APRIL-Fc [23] = target: T6, human-APRIL-Fc; test: ELISA (OD450), plate coated with APRIL 4 µg/ml, human BCMA titrated up to 10 µg/mL; EC50 table in the figure

T7 sequence (A0A2K5UD97 entry or part of it limits assumed): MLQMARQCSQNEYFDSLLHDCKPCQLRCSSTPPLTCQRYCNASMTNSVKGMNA
T8 sequence (A0A2K5UD97 entry or part of it): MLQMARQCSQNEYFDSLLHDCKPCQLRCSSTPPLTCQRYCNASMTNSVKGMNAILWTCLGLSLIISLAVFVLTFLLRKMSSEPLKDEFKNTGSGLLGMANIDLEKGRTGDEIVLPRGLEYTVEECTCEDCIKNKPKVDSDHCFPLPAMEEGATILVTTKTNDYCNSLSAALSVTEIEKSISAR

**Q.** With B1 as the binder, how does the IC50 [1] read?
**A.** 1.36 µg/mL

**Q.** And the EC50 [2]?
**A.** 0.514 µg/mL

**Q.** What about the EC50 [3] of the same binder?
**A.** 0.772 µg/mL

**Q.** What about the EC50 [4] of the same binder?
**A.** 0.862 µg/mL

**Q.** And the EC50 [5]?
**A.** 0.293 µg/mL

**Q.** What about the Kd (human-BCMA-Fc [6]) of the same binder?
**A.** 0.0539 nM

**Q.** What about the koff (human-BCMA-Fc [6]) of the same binder?
**A.** 1.19e-05 s⁻¹

**Q.** What about the kon (human-BCMA-Fc [6]) of the same binder?
**A.** 220000 M⁻¹ s⁻¹

**Q.** And the EC50 (human-BCMA-Fc [7])?
**A.** 0.304 µg/mL

**Q.** And the IC50 [8]?
**A.** 1.79 µg/mL

**Q.** And the Kd [9]?
**A.** 0.352 nM

**Q.** What about the koff [9] of the same binder?
**A.** 0.000111 s⁻¹

**Q.** And the kon [9]?
**A.** 317000 M⁻¹ s⁻¹

**Q.** And the EC50 [10]?
**A.** 0.341 µg/mL

**Q.** And the EC50 [11]?
**A.** 1.09 µg/mL

**Q.** What about the EC50 [12] of the same binder?
**A.** 0.749 µg/mL

**Q.** What about the EC50 [13] of the same binder?
**A.** 0.642 µg/mL

**Q.** What about the IC50 [14] of the same binder?
**A.** 1.41 µg/mL

**Q.** And the EC50 (human-BCMA-His)?
**A.** 0.77 µg/mL

**Q.** And the IC50 [15]?
**A.** 1.6 µg/mL

**Q.** And the EC50 (human BCMA on H929 cells)?
**A.** 6.8 µg/mL

**Q.** What about the IC50 [16] of the same binder?
**A.** 1.37 µg/mL

**Q.** And the IC50 [17]?
**A.** 1.51 µg/mL

**Q.** What about the EC50 [18] of the same binder?
**A.** 2.88 µg/mL

**Q.** And the EC50 [19]?
**A.** 7.22 µg/mL

**Q.** How did the EC50 (human-APRIL-Fc [20]) turn out when B2 was run?
**A.** 1.07 µg/mL

**Q.** And the EC50 (human-APRIL-Fc [21])?
**A.** 1.28 µg/mL

**Q.** And the EC50 (human-APRIL-Fc [22])?
**A.** 2.05 µg/mL

**Q.** What about the EC50 (human-APRIL-Fc [23]) of the same binder?
**A.** 1.57 µg/mL

Source: patent US20240052048A1 (SUZHOU QIN PHARMACEUTICALS, published 2024)
